Molecular target: mouse pendrin (SLC26A4), full length (mouse)
Test: cryo-EM structure; single-particle cryo-EM of purified pendrin in 0.02% GDN, about 1.7 mg/mL, pH 8.0-8.3; samples in 150 mM NaCl (pendrin-Cl), NaHCO3 (pendrin-HCO3), Cl/HCO3, Cl/I and HCO3/I; symmetric and asymmetric homodimers

With “mouse pendrin (SLC26A4), full length (natural protein)” as the substance, how does the stoichiometry N read?
Its stoichiometry N is 2.
